Source: patent US20210070829A1

Target: FGFR/β-Klotho receptor complex
Test: cell-based or functional assay

Native FGF21 (from UniProt Q9NSA1 29-209) (ligand)
FGF21 activity EC50 (luciferase reporter): 0.12 nM
